Results taken from PMC2234240 (The Journal of Cell Biology, 2008).

Target: T1, GST-Rsa1p (yeast (S. cerevisiae), UniProt Q08932 1-381)
T1 sequence: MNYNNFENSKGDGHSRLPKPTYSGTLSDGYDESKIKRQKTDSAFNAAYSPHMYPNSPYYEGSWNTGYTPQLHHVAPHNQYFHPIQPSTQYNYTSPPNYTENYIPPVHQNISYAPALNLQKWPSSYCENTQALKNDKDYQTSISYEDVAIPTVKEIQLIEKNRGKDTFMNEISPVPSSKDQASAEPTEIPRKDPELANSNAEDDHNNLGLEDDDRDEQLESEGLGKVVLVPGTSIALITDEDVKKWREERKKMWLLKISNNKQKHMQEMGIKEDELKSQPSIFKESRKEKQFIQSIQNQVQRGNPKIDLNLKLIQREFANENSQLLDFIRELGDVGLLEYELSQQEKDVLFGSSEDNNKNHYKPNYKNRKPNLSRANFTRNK
Assay: pull-down

B1: recombinant Snu13p (natural protein)
chain: MSAPNPKAFPLADAALTQQILDVVQQAANLRQLKKGANEATKTLNRGISEFIIMAADCEPIEILLHLPLLCEDKNVPYVFVPSRVALGRACGVSRPVIAASITTNDASAIKTQIYAVKDKIETLLI
B1: binds.
